For orientation: Kd means the constant that tells how readily two partners part at equilibrium.

Holding throughout (conditions): both partners purified
In experiment [1] the target is T1, biotinylated rHev b 8 (Hevea brasiliensis, biotin (1:5 profilin:biotin ratio; sites not stated)).
T1 construct: profilin Hev b 8, Hevea brasiliensis, named 'rHev b 8' in the BLI methods; The BLI methods say only 'Profilin rHev b 8'; also called biotinylated profilin; biotinylated allergen; source: E. coli Rosetta (DE3), purified (HisTrap), then biotinylated at a 1:5 profilin:biotin ratio and dialyzed
T1 chain: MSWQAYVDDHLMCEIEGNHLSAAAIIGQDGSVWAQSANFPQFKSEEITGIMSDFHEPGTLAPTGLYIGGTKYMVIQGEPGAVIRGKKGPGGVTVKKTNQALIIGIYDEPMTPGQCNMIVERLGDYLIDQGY
As to the kind of experiment: BLI; biotinylated rHev b 8 (125 nM) on streptavidin biosensors; Fab/IgE 2F5 at 62.5-2000 nM; 25 °C; PBS pH 7.4, 0.05% Tween 20, 1 M NaCl; 1:1 global fit considering nonspecific binding (Association-Dissociation model, GraphPad Prism 8). In general terms: Biolayer interferometry detects binding as a change in optical thickness at a sensor tip.

Experiment [2] deals with T1, biotinylated rHev b 8. The experiment is described as follows: BLI; same BLI data (biotinylated rHev b 8 on streptavidin, 25 °C, PBS pH 7.4, 0.05% Tween 20, 1 M NaCl); kon from the association step and koff from the dissociation step fitted separately in Prism 8, KD = koff/kon.
The target in experiment [3] is T2, DDDK-rHev b 8 (rHev b 8 with the last four residues of the enterokinase cleavage site at the N-terminus) (Hevea brasiliensis).
T2 construct: last four residues of the enterokinase cleavage site left at the N-terminus (D-3, D-2, D-1, K-0); D-2 makes a hydrogen bond with Y49 of the Fab light chain; profilin Hev b 8, Hevea brasiliensis, from M1; The whole construct was expected at 18,283 Da but measured 14,625 Da (14,629 Da in another paragraph): only DDDK is left of the N-terminal extension; also called DDDK-Hev b 8; rHev b 8 whole …
T2 chain: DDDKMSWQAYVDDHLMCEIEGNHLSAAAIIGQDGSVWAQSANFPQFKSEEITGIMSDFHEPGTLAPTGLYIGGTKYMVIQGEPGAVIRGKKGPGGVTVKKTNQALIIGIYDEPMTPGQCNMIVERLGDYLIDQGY
As to the kind of experiment: MALDI-TOF mass spectrometry; sinapinic acid matrix; samples of Fab/IgE 2F5 and of its complex with rHev b 8 (whole construct); the peaks of the complex and of the dimeric Fab were not calibrated.

The target in experiment [4] is T3, recombinant maize profilin (rZea m 12) (Zea mays).
T3 construct: profilin Zea m 12, maize; has D14, G98, V118, E128; The mutagenesis primers encode KKT(N)MSL and YLI(D)QGF around positions 98 and 128
T3 chain: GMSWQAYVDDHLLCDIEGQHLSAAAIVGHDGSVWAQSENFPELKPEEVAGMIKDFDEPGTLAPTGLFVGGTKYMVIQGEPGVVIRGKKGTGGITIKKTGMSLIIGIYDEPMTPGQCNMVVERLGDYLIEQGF
The experiment is described as follows: ELISA; plates coated with 100 μL of 0.7 μM profilin in PBS pH 7.4, blocked with 1% BSA; IgE 2F5 in PBS, 1 h 37 °C; detected with HRP anti-mouse IgE Fcε, ABTS, 405 nm; n = 4. For orientation: ELISA stands for enzyme-linked immunosorbent assay.

In experiment [5] the target is T2, DDDK-rHev b 8 (rHev b 8 with the last …). The description is as above.

B1: Fab/IgE 2F5 (papain Fab fragment of the murine IgE 2F5) (Fab, V domains shown)
VH: EVQLVESGGGLVQPKGSLKLSCAASGFTFNTYAMNWVRQAPGKGLEWVARIRTKTNNYVTYYADSVKDRFTISRDDSQSMLYLQMNNLKTEDTAMYYCVRHVGDYWGQGTSVTVSS
VL: DIQMTQSPASLSASVGETVTITCRASGNIHNYLAWFQQKQGKSPQLLVYNAKTLADGVPSRFSGSGSGTQYSLKINSLQPEDFGSYYCQHFWSTPYTFGGGTKLEIK
notes: VH and Cε1; papain cleavage site said to be R209/P210 between Cε1 and Cε2; light chain of IgE 2F5; also called the Fab; source: papain digest of IgE 2F5 (36 h, 37 °C), purified (Superdex 75 SEC, Mono Q)
Take B1: the Kd with biotinylated rHev b 8 [1] was determined as 370 ± 6.8 nM; with biotinylated rHev b 8 [2], 369 ± 3.8 nM. In addition, in experiment [3], the binding result is “binds”.

B2: murine monoclonal IgE antibody 2F5 (anti-profilin Hev b 8) (antibody, V domains shown)
VH: B1 VH
VL: B1 VL
notes: rest of the murine IgE (epsilon) heavy chain constant region after the papain site R209/P210 (Cε2 onward); as the light chain of m2; Native, non-recombinant IgE with naturally paired chains; also called IgE 2F5; mAb 2F5; copies: 2 + 2
For the molecule B2, the binding result was “no binding” in experiment [4] and “binds” in experiment [5].

The record behind these values is article PMC9334453, “A native IgE in complex with profilin provides insights into allergen recognition and cross-reactivity” (Communications Biology, 2022).
